The record followed here is patent publication US20050182242A1, “Global analysis of protein activities using proteome chips” (priority 2001, published 2005).

What all share (conditions): liposome binding signal on yeast proteome chip, Cy3-streptavidin detection
The subject of series [1] is phosphatidylcholine (PC) liposomes. Description: Yeast proteome chip probed with PC liposomes. The method, boiled down:
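Binding of arrayed yeast proteins to sonicated PC liposomes, with or without 5% (w/w) phosphoinositide, is scored by streptavidin fluorescence on the biotinylated lipid tracer.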

In another series the test system is PI(3,4,5)P3 liposomes. As to the kind of experiment: Yeast proteome chip probed with PI(3,4,5)P3 liposomes.
The next series relates to PI(3,4)P2 liposomes. As to the kind of experiment: Yeast proteome chip probed with PI(3,4)P2 liposomes.
The next series has as its system PI(3)P liposomes. As to the kind of experiment: Yeast proteome chip probed with PI(3)P liposomes.
In the next series the test system is PI(4,5)P2 liposomes. As to the kind of experiment: Yeast proteome chip probed with PI(4,5)P2 liposomes.
The next series relates to PI(4)P liposomes. Description: Yeast proteome chip probed with PI(4)P liposomes.

B1: GPA2: yeast GST-HisX6 fusion protein on proteome chip (protein, UniProt P10823 2-449, looked up)
Guanine nucleotide-binding …: GLCASSEKNGSTPDTQTASAGSDNVGKAKVPPKQEPQKTVRTVNTANQQEKQQQRQQQPSPHNVKDRKEQNGSINNAISPTATANTSGSQQINIDSALRDRSSNVAAQPSLSDASSGSNDKELKVLLLGAGESGKSTVLQQLKILHQNGFSEQEIKEYIPLIYQNLLEIGRNLIQARTRFNVNLEPECELTQQDLSRTMSYEMPNNYTGQFPEDIAGVISTLWALPSTQDLVNGPNASKFYLMDSTPYFMENFTRITSPNYRPTQQDILRSRQMTSGIFDTVIDMGSDIKMHIYDVGGQRSERKKWIHCFDNVTLVIFCVSLSEYDQTLMEDKNQNRFQESLVLFDNIVNSRWFARTSVVLFLNKIDLFAEKLSKVPMENYFPDYTGGSDINKAAKYILWRFVQLNRANLSIYPHVTQATDTSNIRLVFAAIKETILENTLKDSGVLQ
modifications: GST-His6 tag
notes: yeast GST-HisX6 fusion protein on proteome chip
The molecule B1 returned a PC in series [1] of 39.33. Also, the “PI(3, 4, 5)P3” value in the series with PI(3,4,5)P3 liposomes stood at 13.05. The “PI(3, 4)P2” value in the series on PI(3,4)P2 liposomes is listed as 119.93. Besides, in the series with PI(3)P liposomes, the “PI(3)P” value is −50.50. Further, the “PI(4, 5)P2” value with PI(4,5)P2 liposomes was 44.85. Further, the “PI(4)P” value with PI(4)P liposomes is 87.31.

B2: VMA13: yeast GST-HisX6 fusion protein on proteome chip (protein, UniProt P41807 2-478, looked up)
V-type proton ATPase subunit H: GATKILMDSTHFNEIRSIIRSRSVAWDALARSEELSEIDASTAKALESILVKKNIGDGLSSSNNAHSGFKVNGKTLIPLIHLLSTSDNEDCKKSVQNLIAELLSSDKYGDDTVKFFQEDPKQLEQLFDVSLKGDFQTVLISGFNVVSLLVQNGLHNVKLVEKLLKNNNLINILQNIEQMDTCYVCIRLLQELAVIPEYRDVIWLHEKKFMPTLFKILQRATDSQLATRIVATNSNHLGIQLQYHSLLLIWLLTFNPVFANELVQKYLSDFLDLLKLVKITIKEKVSRLCISIILQCCSTRVKQHKKVIKQLLLLGNALPTVQSLSERKYSDEELRQDISNLKEILENEYQELTSFDEYVAELDSKLLCWSPPHVDNGFWSDNIDEFKKDNYKIFRQLIELLQAKVRNGDVNAKQEKIIIQVALNDITHVVELLPESIDVLDKTGGKADIMELLNHSDSRVKYEALKATQAIIGYTFK
modifications: GST-His6 tag
notes: as for B1
B2 yielded a PC in series [1] of 45.78. For the same molecule, in the series with PI(3,4,5)P3 liposomes, the “PI(3, 4, 5)P3” value was found to be 28.12. For the same molecule, in the series with PI(3,4)P2 liposomes, the “PI(3, 4)P2” value was 44.27. The “PI(3)P” value in the series with PI(3)P liposomes was determined as 11.50. The “PI(4, 5)P2” value in the series with PI(4,5)P2 liposomes came to 34.40. The “PI(4)P” value with PI(4)P liposomes was found to be 16.55.

B3: SAS3: yeast GST-HisX6 fusion protein on proteome chip (protein, UniProt P34218 1-831, looked up)
Histone acetyltransferase SAS3: MSLTANDESPKPKKNALLKNLEIDDLIHSQFVRSDTNGHRTTRRLFNSDASISHRIRGSVRSDKGLNKIKKGLISQQSKLASENSSQNIVNRDNKMGAVSFPIIEPNIEVSEELKVRIKYDSIKFFNFERLISKSSVIAPLVNKNITSSGPLIGFQRRVNRLKQTWDLATENMEYPYSSDNTPFRDNDSWQWYVPYGGTIKKMKDFSTKRTLPTWEDKIKFLTFLENSKSATYINGNVSLCNHNETDQENEDRKKRKGKVPRIKNKVWFSQIEYIVLRNYEIKPWYTSPFPEHINQNKMVFICEFCLKYMTSRYTFYRHQLKCLTFKPPGNEIYRDGKLSVWEIDGRENVLYCQNLCLLAKCFINSKTLYYDVEPFIFYILTEREDTENHPYQNAAKFHFVGYFSKEKFNSNDYNLSCILTLPIYQRKGYGQFLMEFSYLLSRKESKFGTPEKPLSDLGLLTYRTFWKIKCAEVLLKLRDSARRRSNNKNEDTFQQVSLNDIAKLTGMIPTDVVFGLEQLQVLYRHKTRSLSSLDDFNYIIKIDSWNRIENIYKTWSSKNYPRVKYDKLLWEPIILGPSFGINGMMNLEPTALADEALTNETMAPVISNNTHIENYNNSRAHNKRRRRRRRSSEHKTSKLHVNNIIEPEVPATDFFEDTVSSLTEYMCDYKNTNNDRLIYQAEKRVLESIHDRKGIPRSKFSTETHWELCFTIKNSETPLGNHAARRNDTGISSLEQDEVENDVDTELYVGENAKEDEDEDEDFTLDDDIEDEQISEENDEEEDTYEEDSDDDEDGKRKGQEQDENDIESHIRKERVRKRRKITLIEDDEE
modifications: GST-His6 tag
notes: as for B1
B3: the PC in series [1] worked out at 54.00. For the same molecule, the “PI(3, 4, 5)P3” value with PI(3,4,5)P3 liposomes amounted to 18.68. Besides, in the series on PI(3,4)P2 liposomes, the “PI(3, 4)P2” value came out at 55.57. Further, the “PI(3)P” value in the series on PI(3)P liposomes stood at 2.00. In addition, the “PI(4, 5)P2” value in the series with PI(4,5)P2 liposomes was found to be 17.85. The “PI(4)P” value in the series with PI(4)P liposomes amounted to 16.55.

B4: SGA1: yeast GST-HisX6 fusion protein on proteome chip (protein, UniProt P08019 1-549, looked up)
Glucoamylase, intracellular …: MARQKMFYNKLLGMLSVGFGFAWALENITIYEFDFGKGILDQSYGGVFSNNGPSQVQLRDAVLMNGTVVYDSNGAWDSSALEEWLQGQKKVSIEKIFENIGPSAVYPSISPGVVIASPSQTHPDYFYQWIRDSALTINSIVSHSAGPAIETLLQYLNVSFHLQRSNNTLGAGIGYTNDTVALGDPKWNVDNTAFTEDWGRPQNDGPALRSIAILKIIDYIKQSGTDLGAKYPFQSTADIFDDIVRWDLRFIIDHWNSSGFDLWEEVNGMHFFTLLVQLSAVDKSLSYFNASERSSPFVEELRQTRRDISKFLVDPANGFINGKYNYIVGTPMIADTLRSGLDISTLLAANTVHDAPSASHLPFDINDPAVLNTLHHLMLHMRSIYPINDSSKNATGIALGRYPEDVYDGYGFGEGNPWVLATCTASTTLYQLIYRHISEQHDLVVPMNNDCSNAFWSELVFSNLTTLGNDEGYLILEFNTPAFNQTIQKIFQLADSFLVKLKAHVGTDGELSEQFNKYTGFMQGAQHLTWSYTSFWDAYQIRQEVLQSL
modifications: GST-HisX6 tag
notes: as for B1
B4 registered a PC in series [1] of 52.83. Besides, in the series with PI(3,4,5)P3 liposomes, the “PI(3, 4, 5)P3” value was determined as 26.55. The “PI(3, 4)P2” value in the series with PI(3,4)P2 liposomes is given as 60.59. Further, in the series on PI(3)P liposomes, the “PI(3)P” value was 16.50. For the same molecule, the “PI(4, 5)P2” value in the series on PI(4,5)P2 liposomes is 6.75. For the same molecule, the “PI(4)P” value in the series on PI(4)P liposomes amounted to 41.15.

B5: APA2: yeast GST-HisX6 fusion protein on proteome chip (protein, UniProt P22108 1-325, looked up)
Diadenosine …: MIEENLKQKIHDKFVAAKKNGHLKVTHAESKKLKDPQTTTQYWVTFAPSLALKPDANKNSDSKAEDPFANPDEELVVTEDLNGDGEYKLLLNKFPVVPEHSLLVTSEFKDQRSALTPSDLMTAYNVLCSLQGDKDDDVTCERYLVFYNCGPHSGSSQDHKHLQIMQMPEKFIPFQDVLCNGKDHFLPTFNAEPLQDDKVSFAHFVLPLPESSDQVDEDLLAMCYVSLMQRALTFFQDWTNESPELTKSYNVLLTKKWICVVPRSHAKSGPPLMLNINSTGYCGMILVKDREKLENLTEDPHLVDKSLLQCGFPNTAGQKPTEYHY
modifications: GST-His6 fusion tag
notes: as for B1
In series [1], B5 gave a PC of 42.26. Further, in the series on PI(3,4,5)P3 liposomes, the “PI(3, 4, 5)P3” value came out at 40.05. The “PI(3, 4)P2” value with PI(3,4)P2 liposomes is 31.40. Also, in the series with PI(3)P liposomes, the “PI(3)P” value is 22.50. The “PI(4, 5)P2” value in the series on PI(4,5)P2 liposomes stood at 34.84. The “PI(4)P” value in the series on PI(4)P liposomes came out at 43.98.

B6: MUM2: yeast GST-HisX6 fusion protein on proteome chip (protein, UniProt P38236 1-366, looked up)
Protein MUM2: MNYMAYDYDPQHSLETSFNNLAFHPHQQSQQQALYESGERNDARPGLMNTLGQASKMNNSMLPQGSSASPLTGQHSLNSTTNFNMPPSMNTYNYQNVPQASMRNTLNHNNIMNGATANDYWLDPMNNMTNNKDTNGNPNDSMSSMSNMTAKTSINSTAFKNSFVPFNHVTALSMNNVNSNEMNSNKDDRMEALEVELQIKESQIESLENEIQRLKKIFNEGLNYKQNEHKYEKENCHIPQTFELPASLEVIFRKLSSSLHAKEKELAETKENLESILTALALNPTNSVTKYGRYDAESIAHKMVVRLENLTNENKEMAKMLAYGRSKETQIELQLAKKENLELREKIASLEAHLASKESSKEDVAN
modifications: GST-His6 fusion tag
notes: as for B1
B6 gave a PC in series [1] of 46.66. Further, the “PI(3, 4, 5)P3” value in the series on PI(3,4,5)P3 liposomes turned out to be 63.34. Also, the “PI(3, 4)P2” value in the series with PI(3,4)P2 liposomes is recorded as 49.29. Further, in the series on PI(3)P liposomes, the “PI(3)P” value worked out at 81.50. The “PI(4, 5)P2” value in the series on PI(4,5)P2 liposomes worked out at 38.76. In addition, the “PI(4)P” value in the series on PI(4)P liposomes is reported as 90.15.
